Test results from PMC12069319, “Transcriptional co-regulator OCA-B/Pou2af1 restricts Th2 differentiation”.

Molecular target: Oct1 DNA binding domain (Oct1-DBD);OCA-B (human (from pBabe-hOct1);, UniProt P14859;Q16633 280-438;1-256, |)
Assay: EMSA; OCA-B supershifts Oct1-DBD; EMSA: 0.6X buffer D (1X: 20 mM HEPES, 100 mM KCl, 1 mM DTT), 50 ng/ul poly-dI/dC, 1 ug/ul BSA, on ice 15 min, 6% native PAGE in 0.5X TBE; probe 50 nM (1 nM for)
Details: protein: recombinant;recombinant; tags: His (pET28a);C-terminal twinstrep and FLAG; copies: 1;1; blunt

Chain of Oct1 DNA binding domain (Oct1-DBD);OCA-B (P14859 280-438, chain 1 of 2): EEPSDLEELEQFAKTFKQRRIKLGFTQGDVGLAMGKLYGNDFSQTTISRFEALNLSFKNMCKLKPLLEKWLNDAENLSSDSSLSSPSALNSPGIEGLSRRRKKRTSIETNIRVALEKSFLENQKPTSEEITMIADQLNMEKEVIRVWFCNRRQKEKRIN
Chain of Oct1 DNA binding domain (Oct1-DBD);OCA-B (Q16633 whole entry, chain 2 of 2, the tested form may be a part): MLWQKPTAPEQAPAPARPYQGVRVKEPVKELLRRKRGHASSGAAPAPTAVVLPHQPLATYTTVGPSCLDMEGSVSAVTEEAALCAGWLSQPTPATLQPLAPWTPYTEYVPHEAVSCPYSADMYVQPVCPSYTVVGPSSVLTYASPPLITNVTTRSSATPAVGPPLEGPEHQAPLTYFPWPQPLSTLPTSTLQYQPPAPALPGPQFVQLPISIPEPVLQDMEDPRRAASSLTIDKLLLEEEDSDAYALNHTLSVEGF

B1: RHS6-Cy5 (dsDNA)
DNA 1: CACCATGCAAAGGATGTGCGCGGACTCCCTTCCATTTGCTGGCCTCTTATCTGATA
DNA 2: TATCAGATAAGAGGCCAGCAAATGGAAGGGAGTCCGCGCACATCCTTTGCATGGTG
- binding result: binds
